These results are taken from paper doi:10.1101/2022.02.14.480375.

In the assay the target is S1PR1-SmBiT (S1P receptor-1 fused to the small fragment of split luciferase) (UniProt P21453). The assay can be described thus: split reporter.
Chain of UniProt P21453 (P21453 whole entry, the tested form may be a part): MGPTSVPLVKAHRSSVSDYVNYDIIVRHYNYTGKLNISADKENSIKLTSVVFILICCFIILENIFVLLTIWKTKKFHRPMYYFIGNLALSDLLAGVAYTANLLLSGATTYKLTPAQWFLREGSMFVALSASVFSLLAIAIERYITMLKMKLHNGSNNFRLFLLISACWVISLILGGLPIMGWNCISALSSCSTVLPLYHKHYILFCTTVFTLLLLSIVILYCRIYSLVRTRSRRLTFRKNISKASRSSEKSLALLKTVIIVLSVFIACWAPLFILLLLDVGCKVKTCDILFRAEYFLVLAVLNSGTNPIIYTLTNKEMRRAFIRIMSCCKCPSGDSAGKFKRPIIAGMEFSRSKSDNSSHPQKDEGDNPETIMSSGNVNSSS

Regarding “LgBiT-beta-arrestin fusion protein (from UniProt P49407 1-418) (natural protein)”, the T1/2 of β-arrestin activation with albumin-bound S1P (1 μM S1P) amounted to 16 min.
